Test results reported in PMC9352680, “A comprehensive thermodynamic model for RNA binding by the Saccharomyces cerevisiae Pumilio protein PUF4”.

T1: PUF4 RNA-binding domain (Saccharomyces cerevisiae, UniProt P25339 537-888)
T1 sequence: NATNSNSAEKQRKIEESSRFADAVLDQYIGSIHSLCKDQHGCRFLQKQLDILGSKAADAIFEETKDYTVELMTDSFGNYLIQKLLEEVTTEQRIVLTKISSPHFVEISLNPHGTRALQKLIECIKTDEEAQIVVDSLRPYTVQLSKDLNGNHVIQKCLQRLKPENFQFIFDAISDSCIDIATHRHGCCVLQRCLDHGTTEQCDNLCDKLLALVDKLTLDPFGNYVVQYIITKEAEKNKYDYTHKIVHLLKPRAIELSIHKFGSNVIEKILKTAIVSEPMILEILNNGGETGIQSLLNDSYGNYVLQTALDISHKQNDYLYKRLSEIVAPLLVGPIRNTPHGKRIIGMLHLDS


Biological target: T1, PUF4 RNA-binding domain
Test: Mg; RNA-MaP; 20 mM Na-HEPES pH 7.4, 30 mM KOAc, 0.75 mM MgCl2, 0.1% Tween-20, 5% glycerol, 0.1 mg/mL BSA, 2 mM DTT; 25 C; 0.0125-409.6 nM protein
Conditions: tags: N-His6-TEV cleaved; C-SNAP kept, Cy3B-labelled; label: tethered on chip by stalled RNA polymerase

Binder | Kd [nM]
UCUCUUUGUAAUUGAUCUCUU (ssRNA) [Ic_S1_P4E.1_K4.1_C4.1_H4.1_A4.1_[T5A]_[A6T]_F4.1_[T8G]_T4.1] | 712
UCUCUUUGUAAUUCUUCUCUU (ssRNA) [Ic_S1_P4E.1_K4.1_C4.1_H4.1_A4.1_[T5A]_[A6T]_F4.1_[T8C]_[A9T]_T4.1] | 123
UCUCUUUGUAAUCCCUCUCUU (ssRNA) [Ic_S1_P4E.1_K4.1_C4.1_H4.1_A4.1_[T5A]_[A6T]_[T7C]_F4.1_[T8C]_[A9C]_T4.1] | 1070
UCUCUUUGUAAUAUGUCUCUU (ssRNA) [Ic_S1_P4E.1_K4.1_C4.1_H4.1_A4.1_[T5A]_[A6T]_[T7A]_F4.1_[A9G]_T4.1] | 12.5
UCUCUUUGUAAUGUCUCUCUU (ssRNA) [Ic_S1_P4E.1_K4.1_C4.1_H4.1_A4.1_[T5A]_[A6T]_[T7G]_F4.1_[A9C]_T4.1] | 476
UCUCUUUGUAAUUGGUCUCUU (ssRNA) [Ic_S1_P4E.1_K4.1_C4.1_H4.1_A4.1_[T5A]_[A6T]_F4.1_[T8G]_[A9G]_T4.1] | 1880
UCUCUUUGUAAUUAAUCUCUU (ssRNA) [Ic_S1_P4E.1_K4.1_C4.1_H4.1_A4.1_[T5A]_[A6T]_F4.1_[T8A]_T4.1] | 216
UCUCUUUGUAAUUGUUCUCUU (ssRNA) [Ic_S1_P4E.1_K4.1_C4.1_H4.1_A4.1_[T5A]_[A6T]_F4.1_[T8G]_[A9T]_T4.1] | 98.4
UCUCUUUGUAAUUACUCUCUU (ssRNA) [Ic_S1_P4E.1_K4.1_C4.1_H4.1_A4.1_[T5A]_[A6T]_F4.1_[T8A]_[A9C]_T4.1] | 670
UCUCUUUGUAAUUAGUCUCUU (ssRNA) [Ic_S1_P4E.1_K4.1_C4.1_H4.1_A4.1_[T5A]_[A6T]_F4.1_[T8A]_[A9G]_T4.1] | 126
UCUCUUUGUAACUAAUCUCUU (ssRNA) [Ic_S1_P4E.1_K4.1_C4.1_H4.1_A4.1_[T5A]_[A6C]_F4.1_[T8A]_T4.1] | 173
UCUCUUUGUAAUACUUCUCUU (ssRNA) [Ic_S1_P4E.1_K4.1_C4.1_H4.1_A4.1_[T5A]_[A6T]_[T7A]_F4.1_[T8C]_[A9T]_T4.1] | 603
UCUCUUUGUAACUUGUCUCUU (ssRNA) [Ic_S1_P4E.1_K4.1_C4.1_H4.1_A4.1_[T5A]_[A6C]_F4.1_[A9G]_T4.1] | 62.5
UCUCUUUGUAAUGUUUCUCUU (ssRNA) [Ic_S1_P4E.1_K4.1_C4.1_H4.1_A4.1_[T5A]_[A6T]_[T7G]_F4.1_[A9T]_T4.1] | 95.2
UCUCUUUGUUUAUGUCUCUU (ssRNA) [Ib_S1_P3E.1_K3.1_C3.1_H3.1_[A4T]_A3.1_F3.1_[A8G]_T3.1] | 1460
UCUCUUUGUAAAGCUUCUCUU (ssRNA) [Ic_S1_P4E.1_K4.1_C4.1_H4.1_A4.1_[T5A]_[T7G]_F4.1_[T8C]_[A9T]_T4.1] | 658
UCUCUUUGUAUCUAUCUCUU (ssRNA) [Ic_S1_P3E.1_K3.1_C3.1_H3.1_A3.1_[A6C]_F3.1_T3.1] | 48.6
UCUCUUUGUAAUGCAUCUCUU (ssRNA) [Ic_S1_P4E.1_K4.1_C4.1_H4.1_A4.1_[T5A]_[A6T]_[T7G]_F4.1_[T8C]_T4.1] | 642
UCUCUUUGUAAAGCAUCUCUU (ssRNA) [Ic_S1_P4E.1_K4.1_C4.1_H4.1_A4.1_[T5A]_[T7G]_F4.1_[T8C]_T4.1] | 387
UCUCUUUGUAAUCUUUCUCUU (ssRNA) [Ic_S1_P4E.1_K4.1_C4.1_H4.1_A4.1_[T5A]_[A6T]_[T7C]_F4.1_[A9T]_T4.1] | 56.3
UCUCUUUGUAAUGGCUCUCUU (ssRNA) [Ic_S1_P4E.1_K4.1_C4.1_H4.1_A4.1_[T5A]_[A6T]_[T7G]_F4.1_[T8G]_[A9C]_T4.1] | 2140
UCUCUUUGUAAAGCGUCUCUU (ssRNA) [Ic_S1_P4E.1_K4.1_C4.1_H4.1_A4.1_[T5A]_[T7G]_F4.1_[T8C]_[A9G]_T4.1] | 2010
UCUCUUUGUCUAUUUCUCUU (ssRNA) [Ib_S1_P3E.1_K3.1_C3.1_H3.1_[A4C]_A3.1_F3.1_[A8T]_T3.1] | 823
UCUCUUUGUAAUUCGUCUCUU (ssRNA) [Ic_S1_P4E.1_K4.1_C4.1_H4.1_A4.1_[T5A]_[A6T]_F4.1_[T8C]_[A9G]_T4.1] | 517
UCUCUUUGUAAUCCUUCUCUU (ssRNA) [Ic_S1_P4E.1_K4.1_C4.1_H4.1_A4.1_[T5A]_[A6T]_[T7C]_F4.1_[T8C]_[A9T]_T4.1] | 484
UCUCUUUGUAACUUCUCUCUU (ssRNA) [Ic_S1_P4E.1_K4.1_C4.1_H4.1_A4.1_[T5A]_[A6C]_F4.1_[A9C]_T4.1] | 113

Binder | Kd [nM]
UCUCUUUGUUUAUUUCUCUU (ssRNA) [Ib_S1_P3E.1_K3.1_C3.1_H3.1_[A4T]_A3.1_F3.1_[A8T]_T3.1] | 426
UCUCUUUGUAAUCUAUCUCUU (ssRNA) [Ic_S1_P4E.1_K4.1_C4.1_H4.1_A4.1_[T5A]_[A6T]_[T7C]_F4.1_T4.1] | 8.88
UCUCUUUGUAAUCUGUCUCUU (ssRNA) [Ic_S1_P4E.1_K4.1_C4.1_H4.1_A4.1_[T5A]_[A6T]_[T7C]_F4.1_[A9G]_T4.1] | 76.5
UCUCUUUGUAAUAGCUCUCUU (ssRNA) [Ic_S1_P4E.1_K4.1_C4.1_H4.1_A4.1_[T5A]_[A6T]_[T7A]_F4.1_[T8G]_[A9C]_T4.1] | 941
UCUCUUUGUAAUACCUCUCUU (ssRNA) [Ic_S1_P4E.1_K4.1_C4.1_H4.1_A4.1_[T5A]_[A6T]_[T7A]_F4.1_[T8C]_[A9C]_T4.1] | 713
UCUCUUUGUAAUCGAUCUCUU (ssRNA) [Ic_S1_P4E.1_K4.1_C4.1_H4.1_A4.1_[T5A]_[A6T]_[T7C]_F4.1_[T8G]_T4.1] | 1160
UCUCUUUGUAAUCAUUCUCUU (ssRNA) [Ic_S1_P4E.1_K4.1_C4.1_H4.1_A4.1_[T5A]_[A6T]_[T7C]_F4.1_[T8A]_[A9T]_T4.1] | 413
UCUCUUUGUAAUUUUUCUCUU (ssRNA) [Ic_S1_P4E.1_K4.1_C4.1_H4.1_A4.1_[T5A]_[A6T]_F4.1_[A9T]_T4.1] | 34.7
UCUCUUUGUUUAUCUCUCUU (ssRNA) [Ib_S1_P3E.1_K3.1_C3.1_H3.1_[A4T]_A3.1_F3.1_[A8C]_T3.1] | 1280
UCUCUUUGUAAUAAUUCUCUU (ssRNA) [Ic_S1_P4E.1_K4.1_C4.1_H4.1_A4.1_[T5A]_[A6T]_[T7A]_F4.1_[T8A]_[A9T]_T4.1] | 172
UCUCUUUGUAAUCGCUCUCUU (ssRNA) [Ic_S1_P4E.1_K4.1_C4.1_H4.1_A4.1_[T5A]_[A6T]_[T7C]_F4.1_[T8G]_[A9C]_T4.1] | 1820
UCUCUUUGUAAUAUAUCUCUU (ssRNA) [Ic_S1_P4E.1_K4.1_C4.1_H4.1_A4.1_[T5A]_[A6T]_[T7A]_F4.1_T4.1] | 2.68
UCUCUUUGUAAUGUGUCUCUU (ssRNA) [Ic_S1_P4E.1_K4.1_C4.1_H4.1_A4.1_[T5A]_[A6T]_[T7G]_F4.1_[A9G]_T4.1] | 105
UCUCUUUGUAAUAUCUCUCUU (ssRNA) [Ic_S1_P4E.1_K4.1_C4.1_H4.1_A4.1_[T5A]_[A6T]_[T7A]_F4.1_[A9C]_T4.1] | 36
UCUCUUUGUAAAGCCUCUCUU (ssRNA) [Ic_S1_P4E.1_K4.1_C4.1_H4.1_A4.1_[T5A]_[T7G]_F4.1_[T8C]_[A9C]_T4.1] | 1020
UCUCUUUGUAAUAACUCUCUU (ssRNA) [Ic_S1_P4E.1_K4.1_C4.1_H4.1_A4.1_[T5A]_[A6T]_[T7A]_F4.1_[T8A]_[A9C]_T4.1] | 642
UCUCUUUGUAACUUUUCUCUU (ssRNA) [Ic_S1_P4E.1_K4.1_C4.1_H4.1_A4.1_[T5A]_[A6C]_F4.1_[A9T]_T4.1] | 58.3
UCUCUUUGUGUAUCUCUCUU (ssRNA) [Ib_S1_P3E.1_K3.1_C3.1_H3.1_[A4G]_A3.1_F3.1_[A8C]_T3.1] | 63.7
UCUCUUUGUAAUUAUUCUCUU (ssRNA) [Ic_S1_P4E.1_K4.1_C4.1_H4.1_A4.1_[T5A]_[A6T]_F4.1_[T8A]_[A9T]_T4.1] | 92.4
UCUCUUUGUAAUUGCUCUCUU (ssRNA) [Ic_S1_P4E.1_K4.1_C4.1_H4.1_A4.1_[T5A]_[A6T]_F4.1_[T8G]_[A9C]_T4.1] | 682
UCUCUUUGUAAUGUAUCUCUU (ssRNA) [Ic_S1_P4E.1_K4.1_C4.1_H4.1_A4.1_[T5A]_[A6T]_[T7G]_F4.1_T4.1] | 11.2
UCUCUUUGUAAUGGUUCUCUU (ssRNA) [Ic_S1_P4E.1_K4.1_C4.1_H4.1_A4.1_[T5A]_[A6T]_[T7G]_F4.1_[T8G]_[A9T]_T4.1] | 764
UCUCUUUGUAAUUUCUCUCUU (ssRNA) [Ic_S1_P4E.1_K4.1_C4.1_H4.1_A4.1_[T5A]_[A6T]_F4.1_[A9C]_T4.1] | 83.9
UCUCUUUGUAAUCUCUCUCUU (ssRNA) [Ic_S1_P4E.1_K4.1_C4.1_H4.1_A4.1_[T5A]_[A6T]_[T7C]_F4.1_[A9C]_T4.1] | 74.6
UCUCUUUGUAAUUUGUCUCUU (ssRNA) [Ic_S1_P4E.1_K4.1_C4.1_H4.1_A4.1_[T5A]_[A6T]_F4.1_[A9G]_T4.1] | 28.5
